From the RNAGym collection of RNA variant scans (doi:10.7554/elife.80360)

B1: CPEB3 Ribozyme (parent)
chain: GGGGGCCACAGCAGAAGCGUUCACGUCGCGGCCCCUGUCAGAUUCUGGUGAAUCUGCGAAUUCUGCUGU

Variants of: B1
Assay: self-cleavage, relative activity (ratio to wild type); higher = more cleavage; co-transcriptional

Variant	self-cleavage
C57G A60G	0.294
G56U U61A	0.752
C57A U62C	0.339
C57A U62G	0.409
U55G G56A	0.963
C54U C63A	0.797
C54U C63G	0.859
G56U A60U	0.293
G56U A60G	0.712
G56A U61A	0.824
G56C C66G	0.517
G56C C66U	0.748
G56C C66A	0.39
U55A U61G	0.6
U55A U61A	0.635
U55G C66A	0.437
U55G C66U	0.681
C54G G68A	0.99
C54G G68C	0.947
U55G G65U	0.307
U55G G65C	0.417
U55G G65A	0.408
U53C C54G	0.424
U53C C54A	0.506

Variant	self-cleavage
G56U C57G	0.384
U55G C63G	0.399
U55G C63A	0.345
U55C U67C	0.912
U55A U69C	1.06
U55A U69A	1.02
U53G G65A	0.707
U53G G65U	0.606
U53G G65C	0.704
U53G U69G	1.02
U53G U69C	1.04
G56A A59U	0.735
G56A A59G	0.649
U53C U64G	0.535
U53C U64C	0.536
U53C U64A	0.525
G56C G68A	0.918
G56C G68U	0.971
U53G U55C	0.468
U53G U55A	0.417
U55C G68U	0.908
U55C G68C	0.977
C54A A60U	0.308
C54A A60G	0.584

Variant	self-cleavage
U53G G56A	0.553
U53G G56C	0.331
U53G G56U	0.401
C54G C57G	0.274
C54G C57A	0.348
C54U C57A	0.413
C54U C57G	0.407
C54U C57U	0.385
U53G A60C	0.308
U53G A60G	0.793
U53G A60U	0.301
G56A U67A	0.927
G56A U67G	0.995
G56A U67C	0.913
G56A U62G	0.775
G56A U62A	0.811
G56A U62C	0.732
U53C C66G	0.477
U55A A60G	0.615
U55A A60U	0.298
G56U C63G	0.485
G56U C63A	0.51
G56U C63U	0.842
G56A C57U	0.308

Variant	self-cleavage
G56A C57A	0.413
G56A C57G	0.306
C54U G68C	1.02
C54U G68A	1.02
C54U G68U	1.06
C54G U61C	0.429
U55A U62G	0.531
C54U U55C	0.888
C54U U55A	0.924
G56A G65C	0.508
G56A G65A	0.777
G56A G65U	0.627
C54U G65C	0.561
C54U G65A	0.884
U53C G56C	0.39
U53C G56A	0.539
C54U U69G	1.06
C54U U69C	1.07
U55G U69G	1
U55G U69A	0.953
U55C U69A	0.971
U55C U69G	1.01
U55C U69C	1.06
G56C U69G	0.925

Variant	self-cleavage
G56C U69A	0.874
G56C U69C	1.02
U55C C66U	0.816
U55C C66G	0.437
U55C C66A	0.342
U53C G58A	0.85
U53C G58C	0.94
G56C A60G	0.608
G56C A60U	0.795
U55A G56C	0.636
U55A G56A	0.976
U55A G56U	0.694
U55A C63G	0.438
U55A C63A	0.464
C54G G65A	0.663
C54G G65U	0.587
U55A G65A	0.581
C54U C66A	0.845
C54U C66G	0.837
C54U C66U	0.975
G56U G65C	0.506
U55G G58C	0.964
U55G G58A	0.644
U53C A60U	0.397

Variant	self-cleavage
U53C A60G	0.711
U53C A60C	0.31
C54A C66U	0.911
C54A C66A	0.45
C57A A60U	0.415
C57A A60C	0.264
C54A U69A	1.01
C54A U69C	1.04
G56U U64C	0.762
C54G G56A	0.658
C54G G56C	0.43
C57G A59U	0.388
C57G A59G	0.375
U55G A59C	0.364
U55G A59G	0.81
C57A G68A	0.367
C57A G68U	0.394
C54U U62G	0.951
C54U U62A	0.901
C54U U62C	1.02
U55A G58C	0.993
U55A G58U	0.988
G56U U62C	0.67
G56U U62A	0.654

Variant	self-cleavage
G56U U62G	0.563
U55C G58U	0.968
U55C G58C	0.918
U55C G58A	0.91
U55A A59U	0.456
U55A A59G	0.981
U55A A59C	0.394
C57A U69A	0.377
C57A U69G	0.455
G56U G68U	0.985
U53C U61G	0.58
U55G U67A	0.884
U55G U67C	0.612
C57A U67G	0.445
G56C U67C	0.878
G56C U67G	0.758
G56C U67A	0.941
U55C A59U	0.545
G56A G68A	0.995
U55A C66A	0.561
U55A C66G	0.68
U55A C66U	0.944
C54G C66U	0.821
U53C G68C	1.02

Variant	self-cleavage
U53C G68A	0.977
U53C G68U	0.986
C54A U62G	0.58
C54A U62C	0.538
G56A U69C	1.04
G56A U69G	1.03
C54A U61G	0.415
C54A U61A	0.512
C54A U61C	0.44
C54U G56A	0.923
C54U G56C	0.466
C54U G56U	0.75
U55C G56U	0.686
C54G A59G	0.957
C54G A59C	0.478
U55C C57A	0.367
C54A G56A	0.695
C54A G56U	0.471
C54U U61G	0.779
C54U U61A	0.933
C57A C66G	0.373
C57A C66A	0.37
C57A C66U	0.267
U53G A59G	0.894

Variant	self-cleavage
U53G A59C	0.422
G56C	0.871
G56U	0.968
G56A	0.977
U55C U62G	0.559
U55C A60C	0.306
G56U U69A	1
G56U U69C	1.04
C54G U62A	0.59
U55G G68C	0.972
U55G G68A	0.951
U53G C54U	0.815
U53G C54G	0.673
U53G	0.927
C54G C63U	0.797
C54G C63G	0.514
C54G U69G	1.05
C54G U69A	1.01
U55G C57U	0.378
U55G C57G	0.39
U53G G68A	0.909
U55A U64G	0.613
U55A U64C	0.479
U53C U55C	0.409

Variant	self-cleavage
U53C U55G	0.303
U53C U55A	0.364
C57A G58U	0.367
C57A G58A	0.313
C54A U64A	0.543
C54A U64C	0.483
G56C U64C	0.637
G56C U64A	0.504
G56U A59G	0.909
C54G A60U	0.393
C54G A60C	0.282
C54G A60G	0.541
U53C U62A	0.549
U53C U62G	0.384
G56U G58A	0.924
G56U G58U	0.978
G56U G58C	0.989
G56A C63G	0.667
G56A C63U	0.943
U55A G68A	0.942
U55A G68U	0.992
U53G C66A	0.629
G56C A59U	0.392
C54A	0.944

Variant	self-cleavage
C54G	0.951
C54U	1
G56A C66U	0.929
G56A C66G	0.744
C54A C63U	0.796
C54A C63G	0.445
C54A C63A	0.538
U53G C57U	0.311
U53G C57A	0.327
C54G U67G	0.925
C54G U67C	0.819
C54U A59U	0.883
C54U A59G	1.04
U53G U62A	0.688
U53G U62C	0.619
U55C C63U	0.85
U55C C63G	0.532
U55C C63A	0.464
C54A G68A	0.955
U55C U61A	0.604
U55C U61C	0.407
C54A G58U	0.968
C54A G58C	0.857
U55G U61C	0.293

Variant	self-cleavage
U55G U61G	0.547
G56A A60C	0.382
G56A A60G	0.856
G56A A60U	0.326
C54G U64G	0.533
U53C C57G	0.398
U53C C57A	0.346
U53C C57U	0.43
G56A G58U	0.994
U53C U69G	0.993
U53C U69C	1.05
C57A A59G	0.426
C57A A59U	0.46
G56U C66A	0.447
G56C G65U	0.512
U53G U61C	0.473
U53G U61A	0.706
U53G U61G	0.681
U55G U62A	0.427
U55G U62C	0.517
G56A U64A	0.798
G56C C57U	0.483
G56C C57A	0.3
G56C C57G	0.343

Variant	self-cleavage
C57A C63A	0.351
C57A C63G	0.404
C57A C63U	0.408
C54A U55A	0.743
C54A U55G	0.796
C54A U55C	0.656
C57A G65A	0.346
U55C U64C	0.662
U55C U64G	0.531
U55G A60C	0.296
C54U A60C	0.211
C54U A60U	0.468
G56C U62C	0.524
G56C U62A	0.355
C54G U55C	0.381
C54A C57A	0.378
C54A C57G	0.338
C54A C57U	0.377
C54U G58C	0.97
C54U G58A	0.987
C54A U67A	0.954
C57A U61C	0.273
C54U U67C	1.01
C54U U67A	0.993

Variant	self-cleavage
C54U U67G	0.987
C54G G58U	0.93
C54G G58C	0.829
U53G U64C	0.764
U53G U64G	0.6
U55C G65C	0.416
U53C C63G	0.451
U53C C63A	0.402
C54A G65U	0.519
C54A G65A	0.629
G56C U61A	0.554
G56C U61G	0.483
G56C U61C	0.434
U53C G65A	0.472
U53C G65C	0.407
U53G G58U	0.939
U53G G58C	0.847
U55G U64C	0.411
U55G U64A	0.371
C57A U64C	0.401
C57A U64A	0.357
U55A U67C	0.906
